# In IntAct's records for PubMed 19731236:
# B1: Phospholipid-transporting ATPase IC (Homo sapiens), O43520 (parent)
# chain: MSTERDSETTFDEDSQPNDEVVPYSDDETEDELDDQGSAVEPEQNRVNREAEENREPFRKECTWQVKANDRKYHEQPHFMNTKFLCIKESKYANNAIKTYKYNAFTFIPMNLFEQFKRAANLYFLALLILQAVPQISTLAWYTTLVPLLVVLGVTAIKDLVDDVARHKMDKEINNRTCEVIKDGRFKVAKWKEIQVGDVIRLKKNDFVPADILLLSSSEPNSLCYVETAELDGETNLKFKMSLEITDQYLQREDTLATFDGFIECEEPNNRLDKFTGTLFWRNTSFPLDADKILLRGCVIRNTDFCHGLVIFAGADTKIMKNSGKTRFKRTKIDYLMNYMVYTIFVVLILLSAGLAIGHAYWEAQVGNSSWYLYDGEDDTPSYRGFLIFWGYIIVLNTMVPISLYVSVEVIRLGQSHFINWDLQMYYAEKDTPAKARTTTLNEQLGQIHYIFSDKTGTLTQNIMTFKKCCINGQIYGDHRDASQHNHNKIEQVDFSWNTYADGKLAFYDHYLIEQIQSGKEPEVRQFFFLLAVCHTVMVDRTDGQLNYQAASPDEGALVNAARNFGFAFLARTQNTITISELGTERTYNVLAILDFNSDRKRMSIIVRTPEGNIKLYCKGADTVIYERLHRMNPTKQETQDALDIFANETLRTLCLCYKEIEEKEFTEWNKKFMAASVASTNRDEALDKVYEEIEKDLILLGATAIEDKLQDGVPETISKLAKADIKIWVLTGDKKETAENIGFACELLTEDTTICYGEDINSLLHARMENQRNRGGVYAKFAPPVQESFFPPGGNRALIITGSWLNEILLEKKTKRNKILKLKFPRTEEERRMRTQSKRRLEAKKEQRQKNFVDLACECSAVICCRVTPKQKAMVVDLVKRYKKAITLAIGDGANDVNMIKTAHIGVGISGQEGMQAVMSSDYSFAQFRYLQRLLLVHGRWSYIRMCKFLRYFFYKNFAFTLVHFWYSFFNGYSAQTAYEDWFITLYNVLYTSLPVLLMGLLDQDVSDKLSLRFPGLYIVGQRDLLFNYKRFFVSLLHGVLTSMILFFIPLGAYLQTVGQDGEAPSDYQSFAVTIASALVITVNFQIGLDTSYWTFVNAFSIFGSIALYFGIMFDFHSAGIHVLFPSAFQFTGTASNALRQPYIWLTIILAVAVCLLPVVAIRFLSMTIWPSESDKIQKHRKRLKAEEQWQRRQQVFRRGVSTRRSAYAFSHQRGYADLISSGRSIRKKRSPLDAIVADGTAEYRRTGDS
# partner: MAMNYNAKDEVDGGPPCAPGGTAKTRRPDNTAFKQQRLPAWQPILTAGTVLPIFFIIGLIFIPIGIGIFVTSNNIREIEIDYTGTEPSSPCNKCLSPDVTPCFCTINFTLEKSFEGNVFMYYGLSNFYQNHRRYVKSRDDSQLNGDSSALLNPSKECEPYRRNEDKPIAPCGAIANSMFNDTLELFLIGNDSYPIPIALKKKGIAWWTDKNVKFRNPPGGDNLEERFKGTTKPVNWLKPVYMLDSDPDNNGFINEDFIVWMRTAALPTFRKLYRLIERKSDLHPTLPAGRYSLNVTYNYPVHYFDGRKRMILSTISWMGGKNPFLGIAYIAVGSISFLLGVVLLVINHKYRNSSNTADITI
# Variants of: B1
# Conditions: with cc50a_human TMEM30A
row,Variant,effect of a mutation on the interaction
1,G308V,disrupting interaction
2,D454A,disrupting interaction
3,I661T,decreasing interaction
4,D554N,disrupting interaction
5,R867C,decreasing interaction
6,D70N,decreasing interaction
7,G1040R,decreasing interaction
